Molecular target: the molecule itself
Test: SDS-PAGE of semi-denatured protein

B1: PanD 114Stop (aspartate decarboxylase domain without the C-terminal tail) (domain or fragment)
chain: MLRTMLKSKIHRATVTCADLHYVGSVTIDADLMDAADLLEGEQVTIVDIDNGARLVTYAITGERGSGVIGINGAAAHLVHPGDLVILIAYATMDDARARTYQPRIVFVDAYNKP
binding result: binds
